In the nanobody polyreactivity screen of Harvey et al. (2022):

assay: yeast display, Sf9 membrane polyspecificity reagent, FACS + sequencing; frameworks hold sequencing errors
Procedure, shortened: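 Using colony PCR, genes from sorted yeast display clones were amplified, then sequenced on MiSeq at 2 × 250 and filtered by CDR length. The clones had been stained with 10% biotinylated, detergent-solubilized Sf9 membrane reagent for 1 hour at 4 °C and sorted by FACS into low and high (top ~1%) gates on anti-HA and streptavidin fluorescence. Polyreactivity labels come from the gate of origin.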

For “QVQLVESGGGLVQAGGSLRLSCAASGSIFRGYAMGWYRQAPGKERELVAAIRYSGARTYYADSVKGRFTISRDNAKNTVYLQMNSLKPEDTAVYYCNARYIRSYDYWGQGTQVTVSS”, which “polyreactivity (PSR sort gate)” value is on record?
The value was “high polyreactivity”.

For “QVQLVESGGGIVQAGGSLLLSCAASGSTIIRYVKGWYRQAPGTERELVAGINSSAGSTNYADSVKGRFTISRDNAKNTVYLQMISLKPEDTAVYYCNADLRSEYDYWGQGTQVTVSS”, which “polyreactivity (PSR sort gate)” value is on record?
The value was “low polyreactivity”.

With “QVQLVESGGGLVQAGGSLRLSCAASGSTFNGYAMGWYRQAPGKERELVAAISKRGGGTYYADSVKGRFTISRDNAKNTVYLQMNSLKPEDTAVYYCAAVSGPFVQTSGNGEYDYWGQGTQVTVSS” as the sequence, how does the “polyreactivity (PSR sort gate)” value read?
The value was “low polyreactivity”.

With “QVQLVESGGGLVQAGGSLRLSCAASGSTFSYYGMGWYRPAPGKERELVAAIDYSGDSTYYADSVKARFTISRDNAKNTVYLQMNSLKPEDTAVYYCAADDYPWNRYEYWGQGTQVTVSS” as the sequence, how does the “polyreactivity (PSR sort gate)” value read?
The value was “low polyreactivity”.

For “QVQLVESGGGLVQAGGSLRLSCAASGIIFERNAMGWYRQAPGKERELVAAISSNGGSTYYADSVKGRFTISRDNAKNTVYLQMNSLKPEDTAVYYCAAQGVYAGSRYYYWGQGTQVTVSS”, which “polyreactivity (PSR sort gate)” value is on record?
Its value is “high polyreactivity”.

For “QVQLVESGGGLVQAGGSLRLSCAASGSIFKYNAMGWYRQAPGKERELVAAISNDGGRTYYADSVKGRFTISRDNAKNTVYLQMNSLKPEDTPVYDGNVVRVRYYWWEFDYWGQGTQVTVSS”, which “polyreactivity (PSR sort gate)” value is on record?
Its value is “high polyreactivity”.

With “QVQLVESGGGLVQAGGSLRLSCAASGFTFYSNAMGWYRQAPGKERELVAVINSDDDSTYYADSVKGRFTISRDNAKNTVYLQMNSLKPEDTAVYYCNKVWRVGKYPYSDRYYFGGGYWGQGTQVTVSS” as the sequence, how does the “polyreactivity (PSR sort gate)” value read?
The value was “high polyreactivity”.

Which “polyreactivity (PSR sort gate)” value does the source give for “QVQLVESGGGLVKAGGSLRLSCAASGFTFNKYAMGWYRQAPGKERESVAAISSSGGSTRYADSVKGRFTISRDNAKNTVYLQMNSLKPADTAVYYCAVYVTPDSGWWLYDYWGQGTHVTVSS” here?
The value was “high polyreactivity”.

With “QVQLVESGGGLVQAGGSLRLSCAASGGILPKNAMGCYRQAPGKQRELVAAISTRGTSTYYADSVKGRFTISRDNAKNTVYLQMNSLKPEDTGVYYCATSRVYIGYDYWGQGTQETVSS” as the sequence, how does the “polyreactivity (PSR sort gate)” value read?
Its value is “low polyreactivity”.

With “QVQLVDSGGGLVQAGGSLRLSCAASGSIFYHNAMGWSRQAPGKERELVAAITWSGSTTYYADSVKGRFTISRDNAKNTVYLQMNRLKPEDTAVYYCAVDIYYYSNVHYYYWGQGTQVTVSS” as the sequence, how does the “polyreactivity (PSR sort gate)” value read?
The value was “low polyreactivity”.

With “QVQLVESGGGLVQAGGSLRLSCAASGSISTYYAMGWYRQAPGKERELVAAISKSGGSTYYADSVKGRFTISRDNAKYTVYLQMNSLKPEDTEVYYCAARYKGRAFWMDYWGQGTQVTVSS” as the sequence, how does the “polyreactivity (PSR sort gate)” value read?
Its value is “high polyreactivity”.

For “QVQLVESGGGLVQAGGSLRLSCAASGFIIIGYVMGWYRQAPGNERELVAAITSSGSGTYYADSVKGRVTISRDNAKNTVYLQMNSLKPEDTAVYYSAAQVRYGTATYHVSSYHYTRYGYWGQATQVTVSS”, which “polyreactivity (PSR sort gate)” value is on record?
The value was “low polyreactivity”.

Which “polyreactivity (PSR sort gate)” value does the source give for “QVQLVESGGGLVQAGGSLGLSCAASGRSFRYYAMGWYIQAPGKERELVAAINWSGGSTYYADSVKGRFTISRDNAKNTVYLHMNRLKPEDTAVYYCNTRWYVGDDWGQGTQVTVSS” here?
The value was “high polyreactivity”.

Which “polyreactivity (PSR sort gate)” value does the source give for “QVQLVESGGGLVQAGGSLRLSCPDSGLIFVANAMGWYIQAPGKERELVAAISRSGGITYYADSVKGRFTISRDNATNTVYLKMNSLKPADTEVYYCAKTLPSNGHYDYWGQGTQVTVSS” here?
The value was “low polyreactivity”.

Which “polyreactivity (PSR sort gate)” value does the source give for “QVQLVESGGGLVQAGGSLRLSCAASGSTFGANAMGWYRQAPGKEREFVAAISSGGRTNYADSVKGRFTISRDNAKNTVYLQMNSLKPEDTAVYYCAASFRRWYFYARHEYGYWGQGTQVTVSS” here?
The value was “low polyreactivity”.

For “QVQLVESSGGLVQAGGSLRLSCAASGFIFPLYTMGWYRQAPAKERELVAAISVTGGSTYYADSVKGRFTISRDNAKNTVYLQMNSLKPEDTAVYYCNAYLFFLNRVCSFDYWGQGTQVTVSS”, which “polyreactivity (PSR sort gate)” value is on record?
Its value is “high polyreactivity”.

For “QVQLVESGGGLVQAGGSLRLSSAASGFIFGGYSMGWYRQAPGKERELVAAISRSGGSTYYADSVKGRFTISRDNPKNTVYLQMNSLKPEDTAVYYCNAVPRRQGFNYWGHGTQVTVSS”, which “polyreactivity (PSR sort gate)” value is on record?
The value was “high polyreactivity”.

For “QVQLVESGGGLVQAGGSLRLSCAASGRIFGAYALGWYRQAPGKERELVAAINSGGSTFYAHSVKGRFTISRDNAKNTVYLQLNSLKPDDTAVYYCAKRSYDYRRYYWGQGTQVTVSS”, which “polyreactivity (PSR sort gate)” value is on record?
Its value is “high polyreactivity”.

For “QVQLVESGGGLLQAGGSLRLSCAASGRIFDRNAMGWYRQAPGKERELVATISSGDTTDYADSVKGRFTISRDNAKNTVYLQMNSLKPEDTAVYYITIYNYWGQGTQVTVSS”, which “polyreactivity (PSR sort gate)” value is on record?
The value was “low polyreactivity”.

For “QVQLVESGGGLVQAGGSLRLSCAASGRIFSHYAMGWYRQAPGKERELVAAITWSGGRTYYADSVKGRFTISRDNAKNTVYLQMNSLKPEDTAVYYSAADREARYPVEYGYWGQGTQVTVSS”, which “polyreactivity (PSR sort gate)” value is on record?
Its value is “low polyreactivity”.

For “QVQLVESGGGLVQAGGSLRLSCAASGSTFGSYVMGWYRQAPGKERELVAAISGSGGSTYYADSVKGRFTISRDNAKNTVYLQMTSLKPEDTAVYYCAAYVFFPWYGYWGQGTQVTVSS”, which “polyreactivity (PSR sort gate)” value is on record?
The value was “high polyreactivity”.

With “QVQLVESGGGLVQAGGSLRLSCAASGRTSIYNTMGWYRQAPGKERELVAAINPSGSTNYADSVKGRFTISRDNAKNTVYLQMNSLKPEDTAVYYCAAVVKWWGQSRYDYWGQGTQVTVSS” as the sequence, how does the “polyreactivity (PSR sort gate)” value read?
Its value is “high polyreactivity”.

Which “polyreactivity (PSR sort gate)” value does the source give for “QVQLVESGGGLVQAGGSLRLSCAASGSTIWFYVMGWYRQAPGKERELVATIRWSTSSTYADSVKGRFTISRDNAMNTVYLQMNILKPEDTAVYYCNAQYSQVNGYDYWGQGTQVTVSS” here?
The value was “low polyreactivity”.

With “QVQLVESGGGLVQAGGSLRLSCAASGSTFVYYAMGWYRQAPGKERELVAAISTSAGSTYYADSVKGRFTISRDNAKNTVYLQMNSLKPEDTAVYYCAAGRYYRGYYWGQGTQVTVSS” as the sequence, how does the “polyreactivity (PSR sort gate)” value read?
The value was “high polyreactivity”.

Which “polyreactivity (PSR sort gate)” value does the source give for “QVQLVESGVGLVQAGGSLRLRCAASGITFGTYPMGWYRQAPGKEREFVAGYYADSVKGRFTISRDNAKNTVYLQMNSLKPEDTAVYYCAADYLYHDDVDYWGQGTQVTVSS” here?
The value was “low polyreactivity”.

With “QVQLVESGGGLVHAGGSLRISCAASGRIFYKYAMAWYRQAPGKERELVAAISTRGGSTYYADSVKWRFTISRDIAKNTVYSQMNSLKPEDTAVYYCAALSAYGYDYCGQGTQVTVSS” as the sequence, how does the “polyreactivity (PSR sort gate)” value read?
The value was “high polyreactivity”.

Which “polyreactivity (PSR sort gate)” value does the source give for “PVQLVESGGGLVQAGGSLRVSCAASGSIFYKNAMGWYRQAPGKEREMVAAITSSGGRTYYADSVKGRFTISRDNPKNTVYLQMNSLKPEDTAVFYCAAVYGYDKYDSWGLGTQVTVSS” here?
The value was “low polyreactivity”.

Which “polyreactivity (PSR sort gate)” value does the source give for “QVQLVESGGGLDQAGGSLRLSCAASGSTSAYYVMGWYRQAPGKERELVAAIDFSGDSTYYADSVKGRFTISRDNAKNTVYLQMISLKPEDSAVYYCAAELFFYSSLVTYEYWGQGTQVTVSS” here?
The value was “high polyreactivity”.

For “QVQLVESGGGLVQAGGSLRLSCAASGRIFAHNAMGWYRQAPGKERELVAAISGTGGRTYYADSVKGRFTISRDNAKNTVYLQMNSLKPEDTAVYYCARRPTHRTGVLDWEYDYWGQGTQVTVSS”, which “polyreactivity (PSR sort gate)” value is on record?
Its value is “low polyreactivity”.

With “QVQLVESGGGLVQAGGSLRLSCAASGRIFGPYAMGWYRQAPGKERELGASISGGGSTNYADSVKGRFTISRDNAKNTVYLPMNSVKPEDTAVYYCAADVYYQYWGWWPYDYWGQGTQVTVSS” as the sequence, how does the “polyreactivity (PSR sort gate)” value read?
The value was “low polyreactivity”.

With “QVQLVDSRGGLVQAGGSLRLSCAASGRTFYRYAKGWDRPAPGKERDLVAVITSGSRTKYADSVKGRFTISRDTAKITVYLQMKSLKPEDTAVYSCAARGLALEGKSSGEYWGQGTQVTVSS” as the sequence, how does the “polyreactivity (PSR sort gate)” value read?
The value was “high polyreactivity”.

Which “polyreactivity (PSR sort gate)” value does the source give for “QVQIVESGGGLVQAGGSLRISCAASGIIFYAYAMGWSRQAPGKEREFVAAINNSGGRTYYADSVKGRFTISRDNAKNTVYLQMNSLKPEDTAVYYCAVYSYYRRTYRREMDYWGQGTQVTVSS” here?
The value was “high polyreactivity”.

With “QVQLVESGGGLVQAGGSLRLSCAASGNTFYYAKAWYRQAPGKERELVASIRTGGSTNYADSVKGRFTISRDNAKNTVYLQMNSLKPEDTAVYYCNRDGTYTHTGWDYWRPYEYWGQGTQVTVSS” as the sequence, how does the “polyreactivity (PSR sort gate)” value read?
The value was “low polyreactivity”.

For “QDQLVESGGGLVQAGGSLRLRCADYGSTFYYYAMGWYRQAPGKERELVAVITRGGGTYYADSVKGRFTISRDNAKNTVYLQMNSLKPEDTAVYYCNARQRSSTRKGYNYWGQGTEVTVSS”, which “polyreactivity (PSR sort gate)” value is on record?
The value was “high polyreactivity”.

Which “polyreactivity (PSR sort gate)” value does the source give for “QVQLVESGGGLVQAGGSLRLSCAASGRIIGRYVMGWYRQAPGKERELVAAITRGGSTNYADSVKGRFTISRDNAKNTVYLQMNSLKPEDTAVYYCARAYSTVNRYSMYYWGQGTQVTVSS” here?
Its value is “high polyreactivity”.

Which “polyreactivity (PSR sort gate)” value does the source give for “QVQLVESGGGLVQAGGSLRLSCAASGSTFVTNAMGWYRKAPGKERELVAAIRWSGGNTYYADSVKGRFTISRDNAKNTVYLQMNSLKPEDTAVYYCAAKKHLLPSYRGIRYYYWGQGTQVTVSS” here?
Its value is “high polyreactivity”.

Which “polyreactivity (PSR sort gate)” value does the source give for “QVQLVESGGGLVQAGGSLRLSCAASGRTSSANVMGGYRQAPGKDRELVAAISWSGGSTYYADSVKGRFTISRDNAKNTVYLQMNSRKPEDTAVYYCAADYYKYYYGGDQLSITRYDYWGQGTQVTVSS” here?
Its value is “low polyreactivity”.

Which “polyreactivity (PSR sort gate)” value does the source give for “QVQLVESGGGLVQAGGSLRLSCAASGYIFKYYVMGWYIQAPGKERELVAGISSTGGTTYYADSVKGRFTISRDNAKNTVYLQMNSLKPEDSAVYYFAADRVYEASQGYTYFDYDYWGQGTQVTVSS” here?
Its value is “low polyreactivity”.

With “QVQRVESGGGLVQAGGSLRLSCAASGGIVSAYAMGWYRQAPGKEREFVASISRRGGSTYYADSVKGRFTISRDNAKNTVYFQMNSLKREDTAVSYCNARKYFEKSREYWGQGTQVTVSS” as the sequence, how does the “polyreactivity (PSR sort gate)” value read?
Its value is “high polyreactivity”.

Which “polyreactivity (PSR sort gate)” value does the source give for “QVQLVESGGGLVQAGGRLLLSSAASGSTFIWNGMGWYRQAPGKERELVAAITSSSTYYADSVKGRFTISRDNAKNTVYLQMNSLKPEDTAVYYCAATFIQVVVNVQLYDYDYWGQGTQVTVSS” here?
Its value is “low polyreactivity”.

Which “polyreactivity (PSR sort gate)” value does the source give for “QVQLVESGVGLVQAGGSLRLSCAASGRSFGPYAMGWYSQAPGKERELVAAISSSGGSTYYADSVKGRFTISRDNAKNNVYLQMNSLKPEDTAVYYCATYFARGYNSWGQGTQVTVSS” here?
Its value is “high polyreactivity”.
